# Measured values: patent publication US20060257938A1, “Method of screening for drugs that block ligand binding to a lipid binding protein” (priority 2005, published 2006)
# Several values for one entry are separate records, joined by “and”; a condition that tells them apart may be missing. Equal entries are not always repeated.
# Tests used:
# Type in all cases: binding
# Conditions in all cases: response relative to ADIFAB2
# [1] = Probe fluorescence ratio response to linolenic acid relative to ADIFAB2
# Description: (§1) In an alternate preferred embodiment, the protein is rI-FABP that has Ala substituted for Leu at position 72 (rI-FABP-L72A) with the resulting probe named ADIFAB2. […] Other probes useful in embodiments of the invention are shown in Tables 1-6 and are also described in U.S. application Ser. No. 11/085,792, filed Mar. 21, 2005 which is incorporated herein by reference. The indicated substitutions are with reference to the ADIFAB protein of SEQ ID NO: 2.
# (§2) ADIFAB2 also has an altered spectral response, making it especially useful for measurements of FFAu in blood samples (Apple et al, Clinical Proteomics, (2004) 1:41-44, U.S. patent application Ser. No. 10/670,958). The wavelengths at the maximum intensities emitted by these fluorescently-labeled I-FABP's in the absence of FFA is about 420 to 480 nm. The emission wavelengths at the maximum intensities emitted by these fluorescently-labeled I-FABP's with FFA bound are between about 495 to 580 nm. Experiments typically involve measuring the fluorescence response within both emission maxima or at wavelengths for which the effect of interfering molecules such as hemoglobin can be eliminated as described in U.S. application Ser. No. 10/670958 and PCT/US2004/030521 and the calculation of the ratio ‘R’ of the two fluorescence intensities. The baseline value for this ratio, measured in the absence of analyte, is designated R0.
# (§3) The intensity ratio (“R” value) is determined as follows. The ratio is calculated using the following formula: R=Fλ1/Fλ2 wherein, Fλ1 is the measured fluorescence intensities (intensity of sample with probe present minus intensity of sample without probe present) at wavelength 1 and Fλ2 is the measured fluorescence intensities (intensity of sample with probe present minus intensity of sample without probe present) at wavelength 2. Then, for a given probe, ΔR, the difference in R value between the measurement in the presence of the test compound (agent) and in the absence of the test compound (agent), is calculated as follows: ΔR=R+agent−R0 In some embodiments, the ΔR value may then be compared to some reference, for example, an agent with a known affinity for a given probe, by ΔR/ΔRreference. Measurements of fluorescence intensities are obtained using standard techniques.
# [2] = Probe fluorescence ratio response to oleic acid relative to ADIFAB2
# Description: as §1, §2, §3
# [3] = Probe fluorescence ratio response to palmitic acid relative to ADIFAB2
# Description: as §1, §2, §3
# [4] = Probe fluorescence ratio response to arachidonic acid relative to ADIFAB2
# Description: as §1, §2, §3
# [5] = Probe fluorescence ratio response to linoleic acid relative to ADIFAB2
# Description: as §1, §2, §3
Molecule,DR/DR LNA [1],DR/DR OA [2],DR/DR PA [3],DR/DR AA ([4]; arachidonic acid),DR/DR LA [5],DR/DR AA ([4]; Arachidonic acid)
"117E, 72A (protein, listed as Rattus norvegicus, PEPTIDE (1)...(131) wild-type rat intestinal fatty acid binding protein) AFDGTWKVDRNENYEKFMEKMGINVVKRKLGAHDNLKLTITQEGNKFTVKESSNFRNIDVVFELGVDFAYSAADGTELTGTWTMEGNKLVGKFKRVDNGKELIAVREISGNELIQTETYEGVEAKRIFKKE",0.64 and 0.638,0.65 and 0.659,0.40 and 0.402,0.65 and 0.656,0.76 and 0.753,–
"117H, 72A (protein, listed as Rattus norvegicus, PEPTIDE (1)...(131) wild-type rat intestinal fatty acid binding protein) AFDGTWKVDRNENYEKFMEKMGINVVKRKLGAHDNLKLTITQEGNKFTVKESSNFRNIDVVFELGVDFAYSAADGTELTGTWTMEGNKLVGKFKRVDNGKELIAVREISGNELIQTHTYEGVEAKRIFKKE",0.94 and 0.924,1.01 and 1.012,0.63 and 0.659,0.90 and 0.913,1.06 and 1.056,–
"117K, 72A (protein, listed as Rattus norvegicus, PEPTIDE (1)...(131) wild-type rat intestinal fatty acid binding protein) AFDGTWKVDRNENYEKFMEKMGINVVKRKLGAHDNLKLTITQEGNKFTVKESSNFRNIDVVFELGVDFAYSAADGTELTGTWTMEGNKLVGKFKRVDNGKELIAVREISGNELIQTKTYEGVEAKRIFKKE",0.37,0.04,0.22,0.34,0.43,–
"102D, 72A (protein, listed as Rattus norvegicus, PEPTIDE (1)...(131) wild-type rat intestinal fatty acid binding protein) AFDGTWKVDRNENYEKFMEKMGINVVKRKLGAHDNLKLTITQEGNKFTVKESSNFRNIDVVFELGVDFAYSAADGTELTGTWTMEGNKLVGKFKRVDNGKEDIAVREISGNELIQTYTYEGVEAKRIFKKE",0.61,0.59,0.28,0.52,0.63,–
"117F, 72A (protein, listed as Rattus norvegicus, PEPTIDE (1)...(131) wild-type rat intestinal fatty acid binding protein) AFDGTWKVDRNENYEKFMEKMGINVVKRKLGAHDNLKLTITQEGNKFTVKESSNFRNIDVVFELGVDFAYSAADGTELTGTWTMEGNKLVGKFKRVDNGKELIAVREISGNELIQTFTYEGVEAKRIFKKE",1.38,1.37,1.20,1.33,1.36,–
"74F, 72A (protein, listed as Rattus norvegicus, PEPTIDE (1)...(131) wild-type rat intestinal fatty acid binding protein) AFDGTWKVDRNENYEKFMEKMGINVVKRKLGAHDNLKLTITQEGNKFTVKESSNFRNIDVVFELGVDFAYSAAFGTELTGTWTMEGNKLVGKFKRVDNGKELIAVREISGNELIQTYTYEGVEAKRIFKKE",1.36 and 1.04,–,1.23 and 0.93,0.44,1.19 and 0.67,1.02
"117I, 72A (protein, listed as Rattus norvegicus, PEPTIDE (1)...(131) wild-type rat intestinal fatty acid binding protein) AFDGTWKVDRNENYEKFMEKMGINVVKRKLGAHDNLKLTITQEGNKFTVKESSNFRNIDVVFELGVDFAYSAADGTELTGTWTMEGNKLVGKFKRVDNGKELIAVREISGNELIQTITYEGVEAKRIFKKE",0.68 and 0.666,0.67 and 0.676,0.41 and 0.408,0.68 and 0.674,0.80 and 0.789,–
"117N, 72A (protein, listed as Rattus norvegicus, PEPTIDE (1)...(131) wild-type rat intestinal fatty acid binding protein) AFDGTWKVDRNENYEKFMEKMGINVVKRKLGAHDNLKLTITQEGNKFTVKESSNFRNIDVVFELGVDFAYSAADGTELTGTWTMEGNKLVGKFKRVDNGKELIAVREISGNELIQTNTYEGVEAKRIFKKE",1.37,1.40,1.19,1.33,1.35,–
"117P, 72A (protein, listed as Rattus norvegicus, PEPTIDE (1)...(131) wild-type rat intestinal fatty acid binding protein) AFDGTWKVDRNENYEKFMEKMGINVVKRKLGAHDNLKLTITQEGNKFTVKESSNFRNIDVVFELGVDFAYSAADGTELTGTWTMEGNKLVGKFKRVDNGKELIAVREISGNELIQTPTYEGVEAKRIFKKE",0.83,0.73,0.38,0.80,0.86,–
"117G, 72A (protein, listed as Rattus norvegicus, PEPTIDE (1)...(131) wild-type rat intestinal fatty acid binding protein) AFDGTWKVDRNENYEKFMEKMGINVVKRKLGAHDNLKLTITQEGNKFTVKESSNFRNIDVVFELGVDFAYSAADGTELTGTWTMEGNKLVGKFKRVDNGKELIAVREISGNELIQTGTYEGVEAKRIFKKE",0.85,0.84,0.39,0.88,0.92,–
"117Q, 72A (protein, listed as Rattus norvegicus, PEPTIDE (1)...(131) wild-type rat intestinal fatty acid binding protein) AFDGTWKVDRNENYEKFMEKMGINVVKRKLGAHDNLKLTITQEGNKFTVKESSNFRNIDVVFELGVDFAYSAADGTELTGTWTMEGNKLVGKFKRVDNGKELIAVREISGNELIQTQTYEGVEAKRIFKKE",1.24 and 1.236,1.13 and 1.134,0.63 and 0.631,1.21 and 1.214,1.37 and 1.374,–
"117M, 72A (protein, listed as Rattus norvegicus, PEPTIDE (1)...(131) wild-type rat intestinal fatty acid binding protein) AFDGTWKVDRNENYEKFMEKMGINVVKRKLGAHDNLKLTITQEGNKFTVKESSNFRNIDVVFELGVDFAYSAADGTELTGTWTMEGNKLVGKFKRVDNGKELIAVREISGNELIQTMTYEGVEAKRIFKKE",1.36,1.32,1.14,1.27,1.31,–
"117L, 72A (protein, listed as Rattus norvegicus, PEPTIDE (1)...(131) wild-type rat intestinal fatty acid binding protein) AFDGTWKVDRNENYEKFMEKMGINVVKRKLGAHDNLKLTITQEGNKFTVKESSNFRNIDVVFELGVDFAYSAADGTELTGTWTMEGNKLVGKFKRVDNGKELIAVREISGNELIQTLTYEGVEAKRIFKKE",0.39,0.35,0.29,0.38,0.43,–
"117R, 72A (protein, listed as Rattus norvegicus, PEPTIDE (1)...(131) wild-type rat intestinal fatty acid binding protein) AFDGTWKVDRNENYEKFMEKMGINVVKRKLGAHDNLKLTITQEGNKFTVKESSNFRNIDVVFELGVDFAYSAADGTELTGTWTMEGNKLVGKFKRVDNGKELIAVREISGNELIQTRTYEGVEAKRIFKKE",0.70,0.61,0.31,0.64,0.70,–
